Assay results from FireProtDB (doi:10.1021/bi020450z).

B1: Adrenodoxin, mitochondrial, P00257 (parent)
chain: MAARLLRVASAALGDTAGRWRLLARPRAGAGGLRGSRGPGLGGGAVATRTLSVSGRAQSSSEDKITVHFINRDGETLTTKGKIGDSLLDVVVQNNLDIDGFGACEGTLACSTCHLIFEQHIFEKLEAITDEENDMLDLAYGLTDRSRLGCQICLTKAMDNMTVRVPDAVSDARESIDMGMNSSKIE

Variants of: B1
Settings: Bos taurus, reversible: YES, structure 1AYF, whole UniProt chain shown; for denaturant m value / denaturant midpoint (higher = more stable) / unfolding free energy: pH 7.5, 20 °C, GdnHCl, Fluorescence, Tris-HCl 50 mM; for Tm / change of melting temperature, mutant - wild type (higher = more stable): pH 8.5, Thermal, CD, Glycine

With MAARLLRVASAALGDTAGRWRLLARPRAGAGGLRGSRGPGLGGGAVATRTLSVSGRAQSSSEDKITVHFINRDGETLTTKGKIGDSLLDVVVQNNLDIDGWGACEGTLACSTCHLIFEQHIFEKLEAITDEENDMLDLAYGLTDRSRLGCQICLTKAMDNMTVRVPDAVSDARESIDMGMNSSKIE [F101W] the denaturant m value was 2.19 kcal/mol/M, the “denaturant midpoint (higher = more stable)” value (from here on “denaturant midpoint”) was 1.5 M and the unfolding free energy was 13.7 kJ/mol. The Tm was 45.4 °C and the “change of melting temperature, mutant - wild type (higher = more stable)” value (from here on “change of melting temperature, mutant”) was -6.5 °C.

With MAARLLRVASAALGDTAGRWRLLARPRAGAGGLRGSRGPGLGGGAVATRTLSVSGRAQSSSEDKITVHFINRDGETLTTKGKIGDSLLDVVVQNNLDIDGFGACEGTLACSTCHLIFEQHIWEKLEAITDEENDMLDLAYGLTDRSRLGCQICLTKAMDNMTVRVPDAVSDARESIDMGMNSSKIE [F122W] the denaturant m value was 2.28 kcal/mol/M, the “denaturant midpoint” value was 1.82 M and the unfolding free energy was 17.4 kJ/mol. For the same variant, the Tm was 48.7 °C and the “change of melting temperature, mutant” value was -3.2 °C.

In the case of MAARLLRVASAALGDTAGRWRLLARPRAGAGGLRGSRGPGLGGGAVATRTLSVSGRAQSSSEDKITVHWINRDGETLTTKGKIGDSLLDVVVQNNLDIDGFGACEGTLACSTCHLIFEQHIFEKLEAITDEENDMLDLAYGLTDRSRLGCQICLTKAMDNMTVRVPDAVSDARESIDMGMNSSKIE [F69W], the Tm is reported as 46.6 °C and the “change of melting temperature, mutant” value is reported as -5.3 °C.

With MAARLLRVASAALGDTAGRWRLLARPRAGAGGLRGSRGPGLGGGAVATRTLSVSGRAQSSSEDKITVHFINRDGETLTTKGKIGDSLLDVVVQNNLDIDGFGACEGTLACSTCHLIFEQHIFEKLEAITDEENDMLDLAWGLTDRSRLGCQICLTKAMDNMTVRVPDAVSDARESIDMGMNSSKIE [Y140W] the Tm was 51.2 °C and the “change of melting temperature, mutant” value was -0.7 °C.

For MAARLLRVASAALGDTAGRWRLLARPRAGAGGLRGSRGPGLGGGAVATRTLSVSGRAQSSSEDKITVHFINRDGETLTTKGKIGDSLLDVVVQNNLDIDGFGACEGTLACSTCHLIWEQHIFEKLEAITDEENDMLDLAYGLTDRSRLGCQICLTKAMDNMTVRVPDAVSDARESIDMGMNSSKIE [F117W], the denaturant m value was 2.09 kcal/mol/M, the “denaturant midpoint” value was 1.01 M and the unfolding free energy was 8.87 kJ/mol. For the same variant, the Tm was 37.3 °C and the “change of melting temperature, mutant” value was -14.6 °C.
